Reference: the RNAGym collection of RNA variant scans (doi:10.1073/pnas.2313332121)

B1: TPR t1 (parent)
chain: GACCAAUCUGCCCUCAGAGCUCGAGAACAUCUUCGGAUGCAGAGGAGGCAGGCUUCGGUGGCGCGAUAGCGCCAACGUCCUCAACCUCCAAUGCAUCCCACCACAUGAUGAUGCCUGAAGAGCCUUGGUUUUUUG

Variants of: B1
Assay: polymerase ribozyme fitness, log enrichment relative to wild type (log ratio); higher = more active; in vitro selection for triplet polymerase activity
Outline: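 Mutant libraries were PCR-built and transcribed for each subunit of a heterodimeric triplet polymerase ribozyme and selected for one round in triplicate at −7 °C, frozen, before gel excision of extended constructs and streptavidin-bead capture. Input and output libraries were Illumina-sequenced, keeping genotypes with ≥10 input reads and ≥1 read per output. Fitness is a logarithmic ratio of genotype to wild-type enrichment, in base 2, using inverse-variance-weighted replicate averages.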

Variant	polymerase ribozyme fitness (log ratio)
G10U U38G C70A C73U C123A U130G	-3.12
C11U A16U U54G U59C	-3.88
A27G G60A	-1.17
U7A G10A G52A C115U	-1.15
A27U C56A C70U U96A	-5.71
U96A C104A	-3.3
A2G C8U	0.157
A6U C89U	-0.0502
G110A C114A	-6.15
G44A C72G C114A A121U G127C	-2.5
C101A G110U	-3.04
C82U G110U	-1.15
U7A U55A U87C	0.229
C13U U33A U125A	-4.68
G57C C94A C97U A121U G122U	-1.21
U87A C88G	-1.1
C12A C15U G52U C62A C86U G117C	-5.92
G127C	-1.03
A41U G63A	-2.73
A5U G19A G52A G57A A95G	-4.08
U9C C40A U130A	-0.631
C11A C13U G60C A100C U132C	-2.62
C15G G69U C102A	-1.71
G36A G58A C62U U116A	-4.45

Variant	polymerase ribozyme fitness (log ratio)
C40A G52A C101A	-3.1
C12U A16G C20U A84U U112G G113U	-0.951
C4A U32C G61A U106A G127U U130G G135U	-2.56
U96C U112A A121U	1.86
A29C C124G	-0.564
C12U A74G A83C C114A C123G C124G	-1.02
A6U G48U C72U C94U A111C	-0.448
A83C A84C G128A U131A	-2.01
A27U C72A C82A U112C G122C	-2.28
G51C G61U	-5.29
G61U G120C	1.18
C22A	-4.89
A2G C12A	-0.474
G42U G69U	-0.0944
G71C C85A G117A	-2.67
C12U G44A	-0.615
C53G C97A	-5.66
C20U A29G G61U C115A U116C G117U G135C	-1.97
C20U G113U G120U	-3.12
G10A C13A C94U U131A	-1.56
U87G U126G	-1.84
C64A G110A G120A	-7.98
G45A C73U G93C	-1.34
C34U C64U C94G G113A	-7.42

Variant	polymerase ribozyme fitness (log ratio)
G47C C70U G120C	-0.515
G71U C123G	0.824
G51C G61A C94U C97U	-3.52
G42A U81C U129G	-4.71
A18G C114U	-3.96
G36U G58C C89A A91C C115U	-4.15
A37C G60U U81A A121C	0.858
C11A C22A C56G U78A U112A U131A	-2.4
C88A C101G U116C	-2.59
C4G C73A	-1.43
U38C G117U G120A	-2.23
C12G G51U	-2.93
A5U C8G C80A A83U	-3.88
C49G G120A	0.175
C20G A41U C104A G113A U132C	-5.25
C11G C12A U38G G71A U106C G113A	-3.24
A50U G61C G122U	-3.51
C15G U59A G63C	-2.33
G36U C101U U116C	-2.19
A27G G120A	-1.1
U106C U125A	-0.83
C15A A46U C76U C101U C115U	-4.21
C13U G77A	0.00416
U30A	-4.65

Variant	polymerase ribozyme fitness (log ratio)
A29G A91C	-1.57
A6U C31G G47A G61A A91U U112A	-7.45
C101G G120U U129A	-3.12
G10U C15U G69U A91C U125A	-3.03
C4G U7C G69U	-0.0887
U9G C70U C98U	-1.09
G42U C56U C115G	-2.13
U9G C88A	-0.00805
C28U G44U C56A	-4.15
C13U A18C C88G U92A	-2.48
C89A C102G	-6.86
C56U U106C G120A	0.203
C13U C20U G51A A66G C72U U109A	-6.73
C62U C88A	-0.404
A2G G36A C49G A84C C123A U126G	-2.7
A43G G128U	-4.43
U59A U129G	-1.18
A6C C8A C49A C56U	-0.31
U59C C94A	-1.01
A24G G71A G127U	-5.42
C56U C80A C97U	-2.71
A6G U54A G93A	-0.596
G52C A100C C114A	-4.06
U14C A83C	-2.26

Variant	polymerase ribozyme fitness (log ratio)
G10U A37U C102G C115A	-6.5
C40A A41U	-2.43
C73U G113C	-1.54
C82A U129A	-2.69
A18U G47U C101A U109A G113A U116A	-6.66
C8A G51C C53A A66U C88A C114A	-6.04
A66U C72G	-1.63
G57C C89G A90G	-1.31
C12U C22G G45A C94U C99U	-4.27
G47U C80U C124A U131G G135A	-0.0494
G36C C76U C123U	-0.606
A18U C64U C97U U116C G120A	-4.84
A75G G93C U116A	-4.1
U32G G60A	-7.06
A66C G69C C97G C101A G107A U112G U130G	-6.88
C53U G63A U96A	-2.3
C8G C70A	-0.64
C73G U109A C114U C123A U130G U132A	-4.38
U38A G48U C49A U87A C115A	-3.9
G45U C62U U78G C101A G122A	-3.21
U9A G19C A27G U106C	-4.96
G45A U55G G77A	-1.78
A68G G71A	-4.15
C20G U32A G44C A111C G113U	-2.86

Variant	polymerase ribozyme fitness (log ratio)
C72U C94U	-0.599
G63U C98A	-6.63
C13U A16C G48C U59A A68G A100C A121C	-7.2
G65A C72U	-6.47
C11A C13U C53G A90C A91G	-3.8
A6C C12A G52U G61A	-1.1
A6U G48U A105U	-2.38
G69U C72U C79U	-0.113
C80A G127U	-3.48
C82A A103U	-6.11
A6U C72G C73U A90U C98G C102U A108U C123G	-7.4
U21C G69A C104U	-2.28
G39A G51U U78A	-4.54
G10U G47C C104U	-1.69
C72U G135U	-1.38
U7G C88G	-0.456
C73A C94U	0.44
G39A U92C	-2.34
C8U G44A G69C C89U A118U C124G G127C	0.163
G44A A50U G60A U132C	-2.42
G61C G127A	-2.71
C56G C85U	-0.934
A43C U59G U78C A111U	-5.7
U81G C101A U106A	-2.9

Variant	polymerase ribozyme fitness (log ratio)
G48A G93C C114A	-2.27
C12U C49G C56U	-0.342
G120A U129A	-0.0881
G60A C72G U92C G93A	-4.92
A24G U112A	-0.197
C4G C12U	-2.1
A26U G47A C86G	-2.67
G61U C98U U129C	-0.95
C20U G60C	-1.73
C15U C49A U92C U106A	-3.27
U14G C62U C73U	-2.29
C49G C82U C101G	-2.53
C8U C94U	0.9
C34A A41U G60C C99U C104A U116C U125A	-7.43
G42A C85A C94U	-3.73
A5G C8U A121C	1.12
C22A G25C G45C G48U U59A C115U	-6.59
C72A U81A C94U C114A	-2.21
C3U C102U C114G C124G	-4.14
C15U A41U G69C C82A U112A C124A	-3.69
G51C C73G C114A	-6.6
A18C U131A	-2.1
A5C C8G C12U C72U C94A	-1.48
